Assay results taken from the supplement of paper PMC10567573.

B1: NP_116010.1 (parent)
chain: HSLRAVSTDPPHHDHHDEFCLMP
B2: BCL2L13 (parent)
chain: MASSSTVPLGFHYETKYVVLSYLG

Variants of: B1
Assay: protein stability index of a GFP-peptide fusion (GPS, HEK-293T) (PSI 1-6); higher = more stable
Details: c terminus: native

Protein stability index of substitutions, site by site:
H15: L 2.33; R 2.32; D 3.15; G 2.88; T 2.58
P10: K 2.58; N 2.27; A 2.38; C 2.29; M 2.47; E 2.77
H16: N 2.81; L 2.61; R 2.34; F 2.65; D 2.64; A 2.9; S 2.54
L21: F 2.21; Q 3.42; S 3.23; I 2.56; T 3.14; C 2.9; V 2.66
P11: A 2.67; D 2.73; W 2.16
V6: R 2.19; C 2.52; M 2.51
P23: H 3.81; W 2.97; C 3.58; F 3.35; V 3.07; R 3.16
L3: K 2.76; I 2.39; W 2.23; H 2.57
R4: G 3.32; A 3.09; L 2.73; W 2.38
S7: F 2.23; N 2.27; L 2.08; R 2.36; G 2.58; T 2.33; M 2.74
F19: T 2.67; K 2.87; L 2.31; P 2.33; R 2.5; C 2.12; N 2.27; S 2.47
H13: I 2.39; Y 2.5; G 2.67; S 2.5; N 2.39; D 3.07; C 2.58; M 2.33
D17: K 2.4; N 2.4; M 2.3; L 2.54; Y 2.17; Q 2.2
A5: S 2.87; F 2.79; V 2.37; C 2.6; D 3.02; L 2.4
H1: P 3.39; W 2.18; M 2.8; L 3.11
C20: G 2.09; F 4.5
S2: V 2.21; Y 2.5; K 2.58; R 2.73; Q 2.6; E 2.65; W 1.9
M22: V 2.95; W 2.78; R 3.24
D9: G 2.42; Y 2.37; M 2.23; K 2.44
D14: Y 2.29; I 1.8; N 2.11; K 2.25
E18: R 2.35; K 1.95; S 2.19; L 2.55
H12: K 2.87; N 2.58; S 2.8; C 2.37; V 2.73; F 2.62
T8: D 2.53; K 2.28; F 2.38

Variants of: B1
Assay: as above
Details: c terminus: native
Remark: another data set of the same source

Protein stability index of substitutions, site by site:
H15: L 1.7; R 2.15; D 2.08; G 2.48; T 1.86; I 2.19
P10: K 1.43; N 1.91; A 2.39; C 2.09; M 2.82; E 2.47
H16: N 2.06; L 2.4; R 2.24; F 2.67; D 2.29; A 2.52; S 2.61; P 2.78
L21: F 2.37; Q 2.14; S 2.31; I 1.68; T 2.47; C 2.63; V 2.53; P 2.75; D 2.46; G 2.9
P11: A 2.67; D 2.3; W 2.29; H 2.62
V6: R 2.37; C 2.93; M 2.68; W 3.53; E 2.26; T 1.79; Q 2.21; H 1.83
P23: H 3.59; W 2.19; C 2.32; F 2.41; V 2.19; R 2.45; K 2.9; Y 2.07; Q 2.84
L3: K 2.04; I 3.18; W 2.47; H 2.9; F 2.27; P 2.19
R4: G 2.64; A 1.82; L 3.03; W 2.9; S 2; Y 2.16; N 2.64; H 2.76; P 2.6; D 2.54
F19: T 1.95; K 1.59; L 1.97; P 2.79; R 1.8; N 2.42; S 3.38; H 2.8; D 2.37
H13: I 2.16; Y 2.08; G 1.73; S 2.59; N 1.91; D 2.18; C 2.89; M 3.31; P 2.23
A5: S 2.34; F 3.93; V 3.93; C 2.2; D 1.7; L 3.4; Y 2; R 1.68; P 2.3
S7: N 2.64; R 1.88; G 2.83; T 3.06; M 2.65; P 2.54; E 2.32; A 1.29; K 2.62
D17: M 4.33; L 2.72; Y 3.33; Q 2; P 2.96
H1: P 2.21; W 1.93; M 1.72; L 1.68; V 1.77
C20: G 3.08; F 3.54; P 1.97; Y 2.92
S2: V 2.88; Y 3.18; K 1.89; R 1.58; Q 2.68; E 2.29; W 1.23; P 1.93; G 2.21
M22: V 2.75; W 2.48; R 2.74; L 1.91; H 2.01; P 2.68; S 2.59; F 1.19; T 3.4; G 1.79; C 2.48; A 2.11; Y 2.35; N 2.52; D 2.11; I 2.04
D9: G 3.24; Y 2.37; M 2.04; K 1.84; H 1.85; I 2.76; T 4.07; Q 3.63
H12: K 3.08; N 2.79; S 2.33; C 2.4; V 2.67; F 2.49; T 3.57
T8: D 2.23; K 2.99; F 1.87; P 2.14
D14: I 3.58; N 2.13; K 2.14; H 2.62; T 3.55
E18: K 3.01; S 2.32; L 2.29; D 2.6; P 2.79

Variants of: B2
Assay: as above
Details: c terminus: a fixed tail appended

Protein stability index, by site and new letter:
M1: C 2.59; D 3.17; E 2.12; F 2.74; G 3.23; H 2.59; I 2.51; K 2.03; P 2.72; Q 1.76; R 2.48; S 2.15; T 2.27; V 2.12; W 2.52; Y 2.09
A2: C 3.03; D 2.56; E 2.06; F 3.22; G 2.72; H 2.74; I 1.92; K 2.38; L 2.56; M 2.68; N 3.27; P 2.49; Q 2.37; R 2.37; S 3.1; T 3.3
S3: A 2.39; C 2.59; D 2.57; E 3.48; F 1.99; G 3.46; H 2.77; I 3.39; K 2.62; M 2.72; N 2.59; P 2.9; Q 2.21; R 2.97; T 3.21; V 3; Y 2.64
S4: A 2.6; D 2.74; E 4.38; G 2.49; H 2.24; I 2.21; K 2.21; M 1.76; N 1.7; P 3.27; Q 3.25; T 2.81; V 2.91; W 2.93; Y 2.38
S5: A 1.72; C 2.11; D 2.72; E 1.53; F 2.55; G 2.2; H 2.09; I 2.74; K 1.91; L 2.16; M 2.51; N 2.72; P 2.24; Q 2.96; R 2.4; T 2.71; V 2.17; W 2.02; Y 3.24
T6: A 2.45; C 1.67; D 2.29; E 3.45; G 1.94; H 3.22; I 2.35; K 2.59; L 2.14; M 2.4; N 2.58; P 2.59; Q 2.26; R 2.82; S 2.95; V 1.82; W 2.27; Y 2.66
V7: A 2.78; C 3.72; D 3.29; E 3.31; F 2.17; G 2.08
